The target of experiment [1] is human mitochondrial Lon protease homolog (LonP1), wild-type, amino acids 125 to 959 (human) (UniProt P36776). As to the kind of experiment: cryo-EM structure.
Experiment [2] has the same target. The experiment is described as follows: cryo-EM structure. The source holds these as a separate data set.
Experiment [3] concerns the target human LonP1 T803V mutant, amino acids 125 to 959 (human) (UniProt P36776).

Where two headings read alike, the source gives them in different places.

Experimental findings from publication doi:10.1101/2021.07.28.454137 are described below.

“human mitochondrial Lon protease homolog (LonP1), wild-type, amino acids 125 to 959 (from UniProt P36776 125-959) (enzyme)”: the stoichiometry N in experiment [1] and in experiment [2] was 6 each time.
Regarding “human LonP1 T803V mutant, amino acids 125 to 959 (from UniProt P36776 125-959) (enzyme)”, the ATPase activity relative to wild-type LonP1 in experiment [3] amounted to 50%.

What is called stoichiometry N is the number of molecules, sites or subunits per partner or assembly.
